Measured values taken from patent publication US20110300138A1 (published 2011).

Key:
Assay in all cases: cell-based or functional assay
[1] = molecular target: wild type TSHR expressed in CHO cells (human) (UniProt P16473)
[2] = molecular target: TSHR with His105 mutated to Ala (expressed in CHO cells) (human) (UniProt P16473)
[3] = molecular target: TSHR with Lys183 mutated to Ala expressed in CHO cells (human) (UniProt P16473)
[4] = molecular target: TSHR with Asp276 mutated to Ala, expressed in CHO cells (human) (UniProt P16473)
[5] = molecular target: TSHR with Arg109 mutated to Ala, expressed in CHO cells (human) (UniProt P16473)
[6] = molecular target: wild type TSHR (human TSH receptor, full length) expressed in CHO cells (human) (UniProt P16473)
[7] = molecular target: TSHR with Gln235 mutated to Ala expressed in CHO cells (human) (UniProt P16473)
[8] = molecular target: TSHR with Asp151 mutated to Ala, expressed in CHO cells (human) (UniProt P16473)
wild type TSHR (human) = wild type TSHR (human) (UniProt P16473)
[9] = molecular target: TSHR with Thr104 mutated to Ala (expressed in CHO cells) (human) (UniProt P16473)
[10] = molecular target: TSHR with Lys58 mutated to Ala expressed in CHO cells (human) (UniProt P16473)
[11] = molecular target: TSHR with Tyr185 mutated to Ala (human) (UniProt P16473)

5B3 IgG (antibody) was tested, and the % inhibition of TSH stimulation; 5B3 10 µg/mL [1] was 2%, the Cyclic AMP produced; 5B3 10 µg/mL + TSH 3 ng/mL [1] was 91.6 pmol/mL and the Cyclic AMP produced; 5B3 100 µg/mL + TSH 3 ng/mL [1] was 134 pmol/mL. The % inhibition of TSH stimulation; 5B3 10 µg/mL [2] was 0%, the % inhibition of TSH stimulation; 5B3 100 µg/mL [2] was 0% and the Cyclic AMP produced; 5B3 10 µg/mL + TSH 3 ng/mL [2] was 75.2 pmol/mL. For the same substance, the Cyclic AMP produced; 5B3 100 µg/mL + TSH 3 ng/mL [2] was 66.7 pmol/mL, the Mutated/wild type (%) of cyclic AMP produced; 5B3 10 µg/mL + TSH 3 ng/mL [2] was 82% and the Mutated/wild type (%) of cyclic AMP produced; 5B3 100 µg/mL + TSH 3 ng/mL [2] was 50%. The % inhibition of TSH stimulation, Exp 1: 5B3 10 µg/mL [3] was 24%, the % inhibition of TSH stimulation, Exp 1: 5B3 100 µg/mL [3] was 17% and the % inhibition of TSH stimulation, Exp 2: 5B3 10 µg/mL [3] was 9%. For the same substance, the % inhibition of TSH stimulation, Exp 2: 5B3 100 µg/mL [3] was 9%, the Cyclic AMP, Mutated/wild type (%), Exp 1: 5B3 10 µg/mL + TSH 3 ng/mL [3] was 93% and the Cyclic AMP, Mutated/wild type (%), Exp 1: 5B3 100 µg/mL + TSH 3 ng/mL [3] was 91%. The Cyclic AMP, Mutated/wild type (%), Exp 2: 5B3 10 µg/mL + TSH 3 ng/mL [3] was 104%, the Cyclic AMP, Mutated/wild type (%), Exp 2: 5B3 100 µg/mL + TSH 3 ng/mL [3] was 111% and the Experiment 1; % inhibition of TSH stimulation; 5B3 10 µg/mL [4] was 6%. It also gave an Experiment 1; % inhibition of TSH stimulation; 5B3 100 µg/mL [4] of 4%, an Experiment 1; Mutated/wild type (%) of cyclic AMP produced; 5B3 10 µg/mL + TSH 3 ng/mL [4] of 84% and an Experiment 1; Mutated/wild type (%) of cyclic AMP produced; 5B3 100 µg/mL + TSH 3 ng/mL [4] of 94%. It also gave an Experiment 1; cyclic AMP produced; 5B3 10 µg/mL + TSH 3 ng/mL [4] of 66.8 pmol/mL, an Experiment 1; cyclic AMP produced; 5B3 100 µg/mL + TSH 3 ng/mL [4] of 68.5 pmol/mL and an Experiment 2; % inhibition of TSH stimulation; 5B3 10 µg/mL [4] of 4%. The Experiment 2; % inhibition of TSH stimulation; 5B3 100 µg/mL [4] was 0%, the Experiment 2; Mutated/wild type (%) of cyclic AMP produced; 5B3 10 µg/mL + TSH 3 ng/mL [4] was 67% and the Experiment 2; Mutated/wild type (%) of cyclic AMP produced; 5B3 100 µg/mL + TSH 3 ng/mL [4] was 75%. For the same substance, the Experiment 2; cyclic AMP produced; 5B3 10 µg/mL + TSH 3 ng/mL [4] was 71.6 pmol/mL, the Experiment 2; cyclic AMP produced; 5B3 100 µg/mL + TSH 3 ng/mL [4] was 75.9 pmol/mL and the % inhibition of TSH stimulation; 5B3 10 µg/mL; Experiment 1 [5] was 0%. The % inhibition of TSH stimulation; 5B3 10 µg/mL; Experiment 2 [5] was 0%, the % inhibition of TSH stimulation; 5B3 100 µg/mL; Experiment 1 [5] was 0% and the % inhibition of TSH stimulation; 5B3 100 µg/mL; Experiment 2 [5] was 0%. The Cyclic AMP produced; 5B3 10 µg/mL + TSH 3 ng/mL; Experiment 1 [5] was 34.4 pmol/mL, the Cyclic AMP produced; 5B3 10 µg/mL + TSH 3 ng/mL; Experiment 2 [5] was 60.6 pmol/mL and the Cyclic AMP produced; 5B3 100 µg/mL + TSH 3 ng/mL; Experiment 1 [5] was 34.5 pmol/mL. For the same substance, the Cyclic AMP produced; 5B3 100 µg/mL + TSH 3 ng/mL; Experiment 2 [5] was 56.6 pmol/mL, the Mutated/wild type (%) of cyclic AMP produced; 5B3 10 µg/mL + TSH 3 ng/mL; Experiment 1 [5] was 52% and the Mutated/wild type (%) of cyclic AMP produced; 5B3 10 µg/mL + TSH 3 ng/mL; Experiment 2 [5] was 88%. For the same substance, the Mutated/wild type (%) of cyclic AMP produced; 5B3 100 µg/mL + TSH 3 ng/mL; Experiment 1 [5] was 50%, the Mutated/wild type (%) of cyclic AMP produced; 5B3 100 µg/mL + TSH 3 ng/mL; Experiment 2 [5] was 85% and the % inhibition of TSH stimulation; 5B3 10 µg/mL [6] was 0%. The % inhibition of TSH stimulation; 5B3 10 µg/mL; Experiment 1 [6] was 3%, the % inhibition of TSH stimulation; 5B3 10 µg/mL; Experiment 2 [6] was 0% and the % inhibition of TSH stimulation; 5B3 100 µg/mL [6] was 0%. For the same substance, the % inhibition of TSH stimulation; 5B3 100 µg/mL; Experiment 1 [6] was 0%, the % inhibition of TSH stimulation; 5B3 100 µg/mL; Experiment 2 [6] was 0% and the Cyclic AMP produced; 5B3 10 µg/mL + TSH 3 ng/mL [6] was 53.9 pmol/mL. For the same substance, the Cyclic AMP produced; 5B3 10 µg/mL + TSH 3 ng/mL; Experiment 1 [6] was 65.8 pmol/mL, the Cyclic AMP produced; 5B3 10 µg/mL + TSH 3 ng/mL; Experiment 2 [6] was 68.6 pmol/mL and the Cyclic AMP produced; 5B3 100 µg/mL + TSH 3 ng/mL [6] was 52.6 pmol/mL. For the same substance, the Cyclic AMP produced; 5B3 100 µg/mL + TSH 3 ng/mL; Experiment 1 [6] was 68.5 pmol/mL, the Cyclic AMP produced; 5B3 100 µg/mL + TSH 3 ng/mL; Experiment 2 [6] was 66.5 pmol/mL and the Experiment 1: % inhibition of TSH stimulation; 5B3 10 µg/mL [7] was 0%. For the same substance, the Experiment 1: % inhibition of TSH stimulation; 5B3 100 µg/mL [7] was 0%, the Experiment 1: Mutated/wild type (%) of cyclic AMP produced; 5B3 10 µg/mL + TSH 3 ng/mL [7] was 80% and the Experiment 1: Mutated/wild type (%) of cyclic AMP produced; 5B3 100 µg/mL + TSH 3 ng/mL [7] was 63%. For the same substance, the Experiment 2: % inhibition of TSH stimulation; 5B3 10 µg/mL [7] was 14%, the Experiment 2: % inhibition of TSH stimulation; 5B3 100 µg/mL [7] was 0% and the Experiment 2: Mutated/wild type (%) of cyclic AMP produced; 5B3 10 µg/mL + TSH 3 ng/mL [7] was 77%. For the same substance, the Experiment 2: Mutated/wild type (%) of cyclic AMP produced; 5B3 100 µg/mL + TSH 3 ng/mL [7] was 95%, the % inhibition of TSH stimulation, mutated TSHR; 5B3 10 µg/mL [8] was 11% and the % inhibition of TSH stimulation, mutated TSHR; 5B3 100 µg/mL [8] was 0%. For the same substance, the Mutated/wild type (%) of cyclic AMP produced; test sample: 5B3 10 µg/mL + TSH (3 ng/mL) [8] was 53%, the Mutated/wild type (%) of cyclic AMP produced; test sample: 5B3 100 µg/mL + TSH (3 ng/mL) [8] was 57% and the % inhibition of TSH stimulation, 5B3 10 µg/mL, wild type TSHR (wild type TSHR (human)) was 0%. It also gave a % inhibition of TSH stimulation, 5B3 100 µg/mL, wild type TSHR (wild type TSHR (human)) of 3%, a Cyclic AMP produced (pmol/mL), 5B3 10 µg/mL + TSH 3 ng/mL, wild type TSHR (wild type TSHR (human)) of 126 pmol/mL and a Cyclic AMP produced (pmol/mL), 5B3 100 µg/mL + TSH 3 ng/mL, wild type TSHR (wild type TSHR (human)) of 97.3 pmol/mL. It also gave a % inhibition of TSH stimulation; 5B3 10 µg/mL [9] of 7%, a % inhibition of TSH stimulation; 5B3 100 µg/mL [9] of 6% and a Cyclic AMP produced; 5B3 10 µg/mL + TSH 3 ng/mL [9] of 59.1 pmol/mL. It also gave a Cyclic AMP produced; 5B3 100 µg/mL + TSH 3 ng/mL [9] of 60 pmol/mL, a Mutated/wild type (%) of cyclic AMP produced; 5B3 10 µg/mL + TSH 3 ng/mL [9] of 71% and a Mutated/wild type (%) of cyclic AMP produced; 5B3 100 µg/mL + TSH 3 ng/mL [9] of 68%. The % inhibition of TSH stimulation; 5B3 10 µg/mL; Experiment 1 [10] was 0%, the % inhibition of TSH stimulation; 5B3 10 µg/mL; Experiment 2 [10] was 4% and the % inhibition of TSH stimulation; 5B3 100 µg/mL; Experiment 1 [10] was 0%. For the same substance, the % inhibition of TSH stimulation; 5B3 100 µg/mL; Experiment 2 [10] was 1%, the Cyclic AMP produced; 5B3 10 µg/mL + TSH 3 ng/mL; Experiment 1 [10] was 81.6 pmol/mL and the Cyclic AMP produced; 5B3 10 µg/mL + TSH 3 ng/mL; Experiment 2 [10] was 92.9 pmol/mL. It also gave a Cyclic AMP produced; 5B3 100 µg/mL + TSH 3 ng/mL; Experiment 1 [10] of 81.6 pmol/mL, a Cyclic AMP produced; 5B3 100 µg/mL + TSH 3 ng/mL; Experiment 2 [10] of 95.8 pmol/mL and a Mutated/wild type (%) of cyclic AMP produced; 5B3 10 µg/mL + TSH 3 ng/mL; Experiment 1 [10] of 99%. The Mutated/wild type (%) of cyclic AMP produced; 5B3 10 µg/mL + TSH 3 ng/mL; Experiment 2 [10] was 88%, the Mutated/wild type (%) of cyclic AMP produced; 5B3 100 µg/mL + TSH 3 ng/mL; Experiment 1 [10] was 101% and the Mutated/wild type (%) of cyclic AMP produced; 5B3 100 µg/mL + TSH 3 ng/mL; Experiment 2 [10] was 106%. For the same substance, the % inhibition of TSH stimulation, 5B3 10 µg/mL, mutated TSHR [11] was 10%, the % inhibition of TSH stimulation, 5B3 100 µg/mL, mutated TSHR [11] was 0% and the Cyclic AMP produced (pmol/mL), 5B3 10 µg/mL + TSH 3 ng/mL, mutated TSHR [11] was 47 pmol/mL. The Cyclic AMP produced (pmol/mL), 5B3 100 µg/mL + TSH 3 ng/mL, mutated TSHR [11] was 56.1 pmol/mL, the Mutated/wild type (%) of cyclic AMP produced; 5B3 10 µg/mL + TSH 3 ng/mL [11] was 37% and the Mutated/wild type (%) of cyclic AMP produced; 5B3 100 µg/mL + TSH 3 ng/mL [11] was 58%.
